Test results taken from PMC9433702, “Functional characterization of a catalytically promiscuous tryptophan decarboxylase from camptothecin-producing Camptotheca acuminata” (Frontiers in Plant Science, 2022).

Substrate: N[C@@H](Cc1c[nH]c2ccccc12)C(=O)O
Experiment: HPLC-DAD quantitation of tryptamine, non-linear regression
Assay type: biochemical, Camptotheca acuminata
Settings: 4 μM PLP, 0.16 μM enzyme, 50 mM phosphate buffer pH 7.6, 37°C

B1: CaTDC3 (Camptotheca acuminata) (protein)
chain: MGSLDSNYDTESPASVGQFNPLDPEEFRKQAHCIVDFIADYYKNIESYPVLSQVDPGYLHSRLPKNAPYRSEPFESILKDVQKDIIPGMTHWMSPNFFAYFPATVSSAAFVGEMLCTCFNSVGFNWLASPAATELEMVVIDWLANMLKLPKSFMFSGTGGGVLQGTTSEAILCTLIAARDRALEIVGVKNFNKLVVYGSDQTHSTYAKACKLAGILPCNIRSIPTTADSNFSVSPLLLRRAIEADKAAGMVPLYICATVGTTSTTAIDPLSSLADVANDYGVWFHVDAAYAGSACICPEFRHYLDGIERADSLSLSPHKWLLSYLDCCCLWVKSPSLLVKALSTDPEYLKNQPSESKSVVDYKDWQVGTGRRFKALRLWFVMRSYGVANLQSHIRTDVQMAKMFEGFVKSDPRFEILVPRVFSLVCFRLNPISGSDPTGTEALNRKLLDWVNSTGRVYMTHTKVGGIYMLRFAVGATLTEKRHVSSAWKLIKEGADVLLKED
notes: homodimer by homology model
With B1 as the protein, how does the Km read?
The Km was 48 ± 2 µM.

What about the kcat of the same protein?
The kcat was 25.6 min^–1.
